Columns and labels:
[1] = target: T1, hTdp2cat (Homo sapiens, UniProt O95551 108-362); test: X-ray crystallography (3.2 A); product complex; Crystals: hTdp2cat-DNA in 90 mM Tris pH 7.0, 27% PEG600, 9% glycerol, 450 mM (NH4)2SO4; mTdp2cat-DNA as in ref 20. Proteolysis buffer not in the material. Trp f
T1 sequence: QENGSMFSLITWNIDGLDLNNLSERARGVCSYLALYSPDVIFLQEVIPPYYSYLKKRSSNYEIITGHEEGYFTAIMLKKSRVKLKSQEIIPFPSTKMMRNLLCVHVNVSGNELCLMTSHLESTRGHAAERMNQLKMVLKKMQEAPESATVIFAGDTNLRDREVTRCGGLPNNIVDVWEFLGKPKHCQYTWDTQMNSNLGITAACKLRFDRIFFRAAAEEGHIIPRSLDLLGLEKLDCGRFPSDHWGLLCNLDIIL

[2] = target: T2, mTdp2cat (Mus musculus, UniProt Q9JJX7 118-370); test: X-ray crystallography; Mn2+ soak (5 mM MnCl2); Crystals: hTdp2cat-DNA in 90 mM Tris pH 7.0, 27% PEG600, 9% glycerol, 450 mM (NH4)2SO4; mTdp2cat-DNA as in ref 20. Proteolysis buffer not in the material. Trp f
T2 sequence: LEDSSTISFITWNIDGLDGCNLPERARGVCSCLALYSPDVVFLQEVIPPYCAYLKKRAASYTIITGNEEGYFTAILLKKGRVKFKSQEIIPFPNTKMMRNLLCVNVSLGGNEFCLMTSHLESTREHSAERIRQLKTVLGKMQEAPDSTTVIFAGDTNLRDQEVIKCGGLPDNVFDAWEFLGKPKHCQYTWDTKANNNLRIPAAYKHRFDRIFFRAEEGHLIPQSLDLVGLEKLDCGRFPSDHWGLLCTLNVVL

[3] = target: T2, mTdp2cat; test: X-ray crystallography (1.43 A); Mg2+; product complex; Crystals: hTdp2cat-DNA in 90 mM Tris pH 7.0, 27% PEG600, 9% glycerol, 450 mM (NH4)2SO4; mTdp2cat-DNA as in ref 20. Proteolysis buffer not in the material. Trp f
[4] = target: T2, mTdp2cat; test: X-ray crystallography (1.55 A); product complex; Crystals: hTdp2cat-DNA in 90 mM Tris pH 7.0, 27% PEG600, 9% glycerol, 450 mM (NH4)2SO4; mTdp2cat-DNA as in ref 20. Proteolysis buffer not in the material. Trp f
[5] = target: T1, hTdp2cat; test: limited proteolysis protection (chymotrypsin); with or without Mg2+; Crystals: hTdp2cat-DNA in 90 mM Tris pH 7.0, 27% PEG600, 9% glycerol, 450 mM (NH4)2SO4; mTdp2cat-DNA as in ref 20. Proteolysis buffer not in the material. Trp f
[6] = target: T2, mTdp2cat; test: limited proteolysis protection (trypsin, chymotrypsin); Mg2+; more protection than Mg2+ alone; Crystals: hTdp2cat-DNA in 90 mM Tris pH 7.0, 27% PEG600, 9% glycerol, 450 mM (NH4)2SO4; mTdp2cat-DNA as in ref 20. Proteolysis buffer not in the material. Trp f

B1: 5'-P dC DNA (dsDNA)
DNA 1: CCGAATTCG
DNA 2: CCGAATTCG
modifications: 5'-phosphate
B1: binds [1]; binds [2].

B2: 5'-P epsilonA DNA (dsDNA)
DNA 1: ACGAATTCG
DNA 2: ACGAATTCG
modifications: 5'-phosphate; 5'-terminal A is 1-N6-ethenoadenine
B2: binds [3].

B3: 5'-P dA DNA (dsDNA)
DNA 1: ACGAATTCG
DNA 2: ACGAATTCG
modifications: 5'-phosphate
B3: binds [4].

B4: 12nt DNA (dsDNA)
DNA 1: CATCCGAATTCG
DNA 2: CATCCGAATTCG
modifications: 5'-phosphate
B4: binds [5]; binds [6].
